Reference: PMC7354924, “Repulsive guidance molecules lock growth differentiation factor 5 in an inhibitory complex” (Proceedings of the National Academy of Sciences of the …, 2020)

B1: RGMBND Gly101Arg (domain or fragment)
chain: QCRIQKCTTDFVSLTSHLNSAVDGFDSEFCKALRAYAGCTQRTSKACRRNLVYHSAVLGISDLMSQRNCSKDGPTSSTNPEVTH
B2: N-terminal domain of human RGMC (RGMCND, Gln36–Pro145) (domain or fragment)
chain: ETGQCKILRCNAEYVSSTLSLRGGGSSGALRGGGGGGRGGGVGSGGLCRALRSYALCTRRTARTCRGDLAFHSAVHGIEDLMIQHNCSRQGPTAPPPPRGPALPGAGSGLPAP
modifications: Asn-linked glycans cut down to one N-acetylglucosamine for crystallization; kept fully glycosylated for binding assays
notes: Glu-Thr-Gly from the pHLsec vector, after the N-terminal secretion signal; human RGMC (Hemojuvelin), N-terminal domain, residues Gln36–Pro145 of UniProtKB Q6ZVN8-1; also called Hemojuvelin; HFE2; source: HEK-293T, transient transfection, secreted, purified (IMAC, SEC)
B3: RGMCND Gly99Arg (domain or fragment, human)
chain: ETGQCKILRCNAEYVSSTLSLRGGGSSGALRGGGGGGRGGGVGSGGLCRALRSYALCTRRTARTCRRDLAFHSAVHGIEDLMIQHNCSRQGPTAPPPPRGPALPGAGSGLPAP
notes: Glu-Thr-Gly from the pHLsec vector, after the N-terminal secretion signal; human RGMC, N-terminal domain, residues Gln36–Pro145 of UniProtKB Q6ZVN8-1, with Gly99Arg; Made by site-directed mutagenesis of the RGMCND construct; also called RGMC Gly99Arg; juvenile hemochromatosis-causing mutation; source: HEK-293T, transient transfection, secreted, purified (IMAC, SEC in SPR running buffer)
B4: soluble RGMC extracellular domain (RGMCECD) for the ProteOn SPR studies (domain or fragment, human, UniProt Q6ZVN8 36-400, looked up)
chain: QCKILRCNAEYVSSTLSLRGGGSSGALRGGGGGGRGGGVGSGGLCRALRSYALCTRRTARTCRGDLAFHSAVHGIEDLMIQHNCSRQGPTAPPPPRGPALPGAGSGLPAPDPCDYEGRFSRLHGRPPGFLHCASFGDPHVRSFHHHFHTCRVQGAWPLLDNDFLFVQATSSPMALGANATATRKLTIIFKNMQECIDQKVYQAEVDNLPVAFEDGSINGGDRPGGSSLSIQTANPGNHVEIQAAYIGTTIIIRQTAGQLSFSIKVAEDVAMAFSAEQDLQLCVGGCPPSQRLSRSERNRRGAITIDTARRLCKEGLPVEDAYFHSCVFDVLISGDPNFTVAAQAALEDARAFLPDLEKLHLFPSD
B5: extracellular domain of human RGMB (RGMBECD, Gln53–Ser411) (domain or fragment)
chain: ETGQCRIQKCTTDFVSLTSHLNSAVDGFDSEFCKALRAYAGCTQRTSKACRGNLVYHSAVLGISDLMSQRNCSKDGPTSSTNPEVTHDPCNYHSHAGAREHRRGDQNPPSYLFCGLFGDPHLRTFKDNFQTCKVEGAWPLIDNNYLSVQVTNVPVVPGSSATATNKITIIFKAHHGCTDQKVYQAVTDDLPAAFVDGTTSGGDSDAKSLRIVERESGHYVEMHARYIGTTVFVRQVGRYLTLAIRMPEDLAMSYEESQDLQLCVNGCPLSERIDDGQGQVSAILGHSLPRTSLVQAWPGYTLETANTQCHEKMPVKDIYFQSCVFDLLTTGDANFTAAAHSALEDVEALHPRKERWHIFPSSGTKHHHHHH
modifications: Asn-linked glycans cut down to one N-acetylglucosamine for crystallization
B6: N-terminal domain of human RGMB (RGMBND, Gln53-His136) (domain or fragment)
chain: ETGQCRIQKCTTDFVSLTSHLNSAVDGFDSEFCKALRAYAGCTQRTSKACRGNLVYHSAVLGISDLMSQRNCSKDGPTSSTNPEVTHGTKHHHHHH
B7: RGMBND His106Asn (domain or fragment)
chain: ETGQCRIQKCTTDFVSLTSHLNSAVDGFDSEFCKALRAYAGCTQRTSKACRGNLVYNSAVLGISDLMSQRNCSKDGPTSSTNPEVTHGTKHHHHHH
B8: RGMBND His106Leu (domain or fragment)
chain: ETGQCRIQKCTTDFVSLTSHLNSAVDGFDSEFCKALRAYAGCTQRTSKACRGNLVYLSAVLGISDLMSQRNCSKDGPTSSTNPEVTHGTKHHHHHH
B9: N-terminal domain of human RGMB (RGMBND, Gln53–His136) (domain or fragment)
chain: ETGQCRIQKCTTDFVSLTSHLNSAVDGFDSEFCKALRAYAGCTQRTSKACRGNLVYHSAVLGISDLMSQRNCSKDGPTSSTNPEVTHGTKHHHHHH
modifications: N-linked glycan on Asn120 (cut down to one N-acetylglucosamine for crystallization; kept fully glycosylated for binding assays); methylated for crystal form 2
B10: N-terminal domain of human RGMA (RGMAND, Ser46–Ser139) (domain or fragment)
chain: ETGSPCKILKCNSEFWSATSGSHAPASDDTPEFCAALRSYALCTRRTARTCRGDLAYHSAVHGIEDLMSQHNCSKDGPTSQPRLRTLPPAGDSQERS
modifications: Asn-linked glycans cut down to one N-acetylglucosamine for crystallization; kept fully glycosylated for binding assays
notes: Glu-Thr-Gly from the pHLsec vector, after the N-terminal secretion signal; human RGMA, N-terminal domain, residues Ser46–Ser139 of UniProtKB Q96B86-1; source: HEK-293T, transient transfection, secreted, purified (IMAC, SEC)

How the values were obtained:
[1] = target: T1, growth differentiation factor 5 (GDF5), wild type (UniProt P43026 382-501); test: SPR; Biacore T200, 25 °C; GDF5 and BMP2 covalently linked to a CM5 chip by primary amine coupling, RGMs as analytes; 0.5 M NaCl, 20 mM Hepes pH 7.4, 0.05% Tween 20; equilibrium binding, 1:1 Langmuir isotherm; apparent affinity; details: both partners purified
T1 construct: GDF5, disulfide-linked dimer; also called wild-type GDF5
T1 sequence (looked up): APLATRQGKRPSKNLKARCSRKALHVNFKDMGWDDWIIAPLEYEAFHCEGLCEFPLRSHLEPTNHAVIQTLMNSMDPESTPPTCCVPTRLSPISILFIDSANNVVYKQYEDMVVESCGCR

[2] = target: T2, bone morphogenetic protein 2 (BMP2) (UniProt P12643 283-396); test: cell-based or functional assay
[3] = target: T1, growth differentiation factor 5 (GDF5), …; test: cell-based or functional assay
[4] = target: T3, growth differentiation factor 5 (GDF5), wild type (human, UniProt P43026 28-501); test: SPR; Biacore T200, 25 °C; GDF5 amine-coupled to a CM5 chip (830, 970 or 1370 RU); RGMBND variants or BSA as analytes; 0.5 M NaCl, 20 mM HEPES pH 7.4, 0.05% (v/v) Tween 20; Kd from the dose-dependency of equilibrium binding, 1:1 Langmuir isotherm; details: both partners purified
T3 construct: GDF5, human, UniProt P43026; Disulfide-linked dimer without glycans; also called BMP14; CDMP1
T3 sequence (looked up): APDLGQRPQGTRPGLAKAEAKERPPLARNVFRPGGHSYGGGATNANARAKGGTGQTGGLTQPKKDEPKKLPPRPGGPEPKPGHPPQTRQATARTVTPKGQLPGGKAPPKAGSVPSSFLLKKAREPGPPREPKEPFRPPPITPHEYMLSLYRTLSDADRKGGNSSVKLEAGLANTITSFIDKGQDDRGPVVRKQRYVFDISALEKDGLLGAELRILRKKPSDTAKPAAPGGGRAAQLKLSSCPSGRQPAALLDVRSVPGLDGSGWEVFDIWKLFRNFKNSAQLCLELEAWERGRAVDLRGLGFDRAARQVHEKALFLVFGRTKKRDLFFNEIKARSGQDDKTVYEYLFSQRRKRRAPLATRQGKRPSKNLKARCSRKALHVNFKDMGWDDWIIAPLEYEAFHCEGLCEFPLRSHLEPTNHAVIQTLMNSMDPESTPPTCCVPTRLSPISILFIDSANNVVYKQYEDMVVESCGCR

[5] = target: T2, bone morphogenetic protein 2 (BMP2); test: SPR; Biacore T200, 25 °C; GDF5 and BMP2 covalently linked to a CM5 chip by primary amine coupling, RGMs as analytes; 0.5 M NaCl, 20 mM Hepes pH 7.4, 0.05% Tween 20; equilibrium binding, 1:1 Langmuir isotherm; apparent affinity; details: both partners purified
[6] = target: T1, growth differentiation factor 5 (GDF5), …; test: SEC-MALS; RGMBND–GDF5 complex, 1 mg/mL, Superdex 200 HR 10/30, 0.5 M NaCl, 20 mM Hepes pH 7.5, 21 °C; details: both partners purified
[7] = target: T4, GDF5 variant Tyr487Lys/Gln489Asp (UniProt P43026 28-501, Tyr487Lys | Gln489Asp); test: SEC-MALS; RGMBND–GDF5(Tyr487Lys/Gln489Asp)–ActR2bECD complex, 1 mg/mL, Superdex 200 HR 10/30, 0.5 M NaCl, 20 mM Hepes pH 7.4, 21 °C; details: both partners purified
T4 construct: GDF5 with Tyr487Lys and Gln489Asp
T4 sequence (looked up): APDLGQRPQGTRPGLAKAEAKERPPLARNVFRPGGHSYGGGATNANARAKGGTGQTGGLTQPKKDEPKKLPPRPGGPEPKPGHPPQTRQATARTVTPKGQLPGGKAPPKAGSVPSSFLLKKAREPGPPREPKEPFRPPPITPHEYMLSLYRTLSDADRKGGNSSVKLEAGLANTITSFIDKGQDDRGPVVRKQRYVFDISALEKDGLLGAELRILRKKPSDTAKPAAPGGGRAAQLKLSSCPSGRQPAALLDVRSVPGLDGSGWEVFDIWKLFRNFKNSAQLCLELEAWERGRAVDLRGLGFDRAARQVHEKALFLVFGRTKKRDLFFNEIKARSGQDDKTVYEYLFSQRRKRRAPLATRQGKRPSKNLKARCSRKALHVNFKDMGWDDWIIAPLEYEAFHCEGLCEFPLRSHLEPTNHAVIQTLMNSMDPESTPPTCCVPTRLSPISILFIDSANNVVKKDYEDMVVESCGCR

T2 sequence (P12643 283-396): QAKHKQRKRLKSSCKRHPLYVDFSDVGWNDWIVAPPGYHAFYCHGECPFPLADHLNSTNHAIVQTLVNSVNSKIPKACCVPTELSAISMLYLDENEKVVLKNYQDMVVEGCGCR

| Binder | Kd [1] [µM] | Kd [4] [µM] | other results |
| --- | --- | --- | --- |
| B1 | > 150 | – | – |
| B2 | 3.9 | – | – |
| B3 | > 20 | – | – |
| B4 | – | – | BMP2 (3 nM) BMP-responsive luciferase reporter in LLC-PK1 cells expressing full-length membrane-anchored RGMC [2]: ~3 fold |
| B5 | 8.8 | – | GDF5 (30 nM) BMP-responsive luciferase reporter in LLC-PK1 cells expressing full-length membrane-anchored RGMB [3]: ~3 fold |
| B6 | – | 1.8 | – |
| B7 | – | > 150 | – |
| B8 | – | > 200 | – |
| B9 | 2.7 | – | Kd [5]: 20.1 µM; stoichiometry N [6]: 2 RGMB per disulfide-linked GDF5 dimer (2:2 by chains); stoichiometry N [7]: 2 RGMBND per GDF5 dimer (2:2:2 by chains) |
| B10 | 16.7 | – | – |
